From article PMC8377490

Test system: C[C@@H]1O[C@@H](O[C@H]2[C@H](O)[C@@H](O)C(O)O[C@@H]2C(=O)O)[C@H](O)[C@H](O)[C@H]1O
Experiment: purified protein
Conditions: 50 mM Hepes-NaOH pH 7.0, 30 °C, 20 nM enzyme

FoRham1 (GA-specific L-rhamnose-α-1,4-D-glucuronate lyase) (Fusarium oxysporum)
Km: 2800 ± 200 µM | kcat: 95.5 s⁻¹ | kcat/Km: 34100 M⁻¹ s⁻¹
